1 molecule from PMC6352652 (2018) can be followed below.

One may read the koff as a measure of how fast the partners let go of each other. Lower therefore signals slow dissociation.

The target in assay [1] is T1, FBG domain of rat tenascin-C (rat).
T1 chain: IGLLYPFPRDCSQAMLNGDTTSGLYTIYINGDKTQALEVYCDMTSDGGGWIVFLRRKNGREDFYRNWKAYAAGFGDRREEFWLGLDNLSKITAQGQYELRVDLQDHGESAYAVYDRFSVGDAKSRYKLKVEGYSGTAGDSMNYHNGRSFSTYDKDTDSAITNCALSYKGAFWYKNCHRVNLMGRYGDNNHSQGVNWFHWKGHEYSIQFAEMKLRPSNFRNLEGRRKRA
As to the kind of experiment: SPR; 37°C. On the technique in general: SPR reads the build-up and loss of mass on a sensor chip optically.

The target in assay [2] is T2, fibrinogen-like globe (FBG) domain of human tenascin-C (human, UniProt P24821 1975-2201).
T2 chain: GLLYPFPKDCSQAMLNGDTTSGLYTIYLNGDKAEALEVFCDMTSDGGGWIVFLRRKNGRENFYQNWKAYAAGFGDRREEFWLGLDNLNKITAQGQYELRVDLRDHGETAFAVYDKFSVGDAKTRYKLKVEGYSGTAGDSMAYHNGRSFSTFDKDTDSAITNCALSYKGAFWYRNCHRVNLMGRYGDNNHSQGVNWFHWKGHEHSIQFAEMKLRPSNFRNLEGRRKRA
In words: SPR; 37°C.

B1: monoclonal antibody C3 (antibody, V domains shown)
VH: QVQLVESGGGLVQPGRSLRLSCAASGFTFDDYAMHWVRQAPGKGLEWVSGISGSGGSTYYADSVKGRFTISRDNAKNSLYLQMNSLRAEDTALYYCAKSYQSDEDAFDIWGQGTMVTVSS
VL: DIQMTQSPASLPTPVGDRVTITCRASQYIQGFLNWYQQKPGKAPKLLIYDASNLETGVPSRFSGSGSGTDFTLTISSLQPEDFATYYCQQSYSTPQTFGQGTKVDIK
Turning to B1, the off-rate (koff) in assay [1] turned out to be 0.00473 s⁻¹; in assay [2], 0.00083 s⁻¹.
